The values that follow come from publication PMC9798971, “Alarming and Calming: Opposing Roles of S100A8/S100A9 Dimers and Tetramers on Monocytes” (Advanced Science, 2022).

Experiment [1] has as its target T1, S100A8/S100A9-tetramer (murine) (murine, UniProt P27005 1-89; P31725 1-113).
T1 chain 1: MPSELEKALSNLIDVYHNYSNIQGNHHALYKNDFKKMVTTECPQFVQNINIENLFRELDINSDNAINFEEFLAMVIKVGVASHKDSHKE
T1 chain 2: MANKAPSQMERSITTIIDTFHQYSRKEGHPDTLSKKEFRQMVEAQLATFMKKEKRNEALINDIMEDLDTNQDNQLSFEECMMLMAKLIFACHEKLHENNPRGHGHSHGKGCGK
Description: ELISA. Background: An ELISA detects its analyte on a solid surface through an enzyme-linked reagent.

A further experiment deals with T2, murine S100A9-N70A (murine, UniProt P31725 1-113, N70A).
T2 sequence (looked up): T1 chain 2 with N70A
In words: reconstitution by refolding together, anion exchange chromatography; equal amounts of the two purified proteins mixed with 1 mM DTT, denatured at pH 2, renatured by stepwise increase of pH to 7.4; residual homodimers separated by anion exchange chromatography. The note with it: both partners purified.

The target in a further experiment is T3, murine S100A9 (murine, UniProt P31725 1-113).
T3 construct: S100A9 (MRP14), murine; also called MRP14
T3 sequence (looked up): T1 chain 2
The experiment is described as above. The note with it: both partners purified.

Changes are numbered by the printed parent chain.

B1: recombinant mouse CD69, His-tagged extracellular domain (domain or fragment)
chain: NVGKYNCPGLYEKLESSDHHVATCKNEWISYKRTCYFFSTTTKSWALAQRSCSEDAATLAVIDSEKDMTFLKRYSGELEHWIGLKNEANQTWKWANGKEFNSWFNLTGSGRCVSVNHKNVTAVDCEANFHWVCSKPSR
Broadly, the Kd is a measure of binding affinity in units of concentration. A higher Kd goes with a looser complex. In experiment [1], B1 registered a Kd of 5.06 nM.

B2: murine S100A8 (natural protein, UniProt P27005 1-89, looked up)
chain: T1 chain 1
notes: S100A8 (MRP8), murine; also called MRP8
B2: the binding result with murine S100A9-N70A and with murine S100A9 was “binds” each time.
